From patent US7226791B2, “Polynucleotides encoding novel guanylate binding proteins (GBP's)” (Bristol-Myers Squibb Company, priority 2003, dated 2007) come the findings set out here.

Experiment [1] concerns GBP-1. Nature of the experiment: siRNA knockdown of GBP-1 protein expression in Cos-7 cells, myc western blot. In kind it is cell-based. The note with it: Cos-7 cells co-transfected with GBP-1 expression vector, 40 nM siRNA duplex; FIG. 50A. The method, then: To test for knockdown of protein expression using siRNAs, Cos-7 cells were transfected as described herein with expression vectors encoding either GBP-1 or GBP-2 in the presence and absence of 40 nM siRNA duplex specific for either GBP-1 (“1–3”, […], (SEQ ID NO:79), Qiagen, Inc.) or GBP-2 (“582”, […] (SEQ ID NO:80), Sequitur Inc., Natick, Mass.). Approximately 18 hours following transfection, cells were harvested using trypsin, and lysed in RIPA buffer as described previously. Lysates were electrophoresed through 4–20% tris-glycine gels, transferred to nitrocellulose, blocked overnight with 5% non-fat dry milk and 0.3% BSA in Tris-buffered saline, and probed with a mouse monoclonal antibody specific for the myc epitope tag.
A general note: A western blot detects proteins with antibodies after separation by electrophoresis.

Experiment [2] deals with MCP-1. Briefly: TNFα-induced MCP-1 expression in human umbilical vein endothelial cells, ELISA. The experiment is classed as cell-based. The note with it: HUVECs, 100 nM siRNA duplexes, 6 hours 10 ng/ml TNFα; FIG. 50B. The method, then:
(§1) In some experiments, human umbilical vein endothelial cells (HUVECs, Clonetics Corp., San Diego, Calif., USA) were transfected using lipofectamine 2000 with 100 nM siRNA duplexes. Cells were cultured overnight, and then stimulated for 6 hours with 10 ng/ml TNFα. Supernatants were analyzed for MCP-1 and IL-8 levels by ELISA (Pharmingen, San Diego, Calif., USA). Cytokine levels were corrected for cell number using the CELL TITER kit (Promega).
A general note: An ELISA detects its analyte on a solid surface through an enzyme-linked reagent.

Experiment [3] relates to IL-8. Briefly: TNFα-induced IL-8 secretion in human umbilical vein endothelial cells, ELISA. The experiment is classed as cell-based. The note with it: HUVECs, 100 nM siRNA duplexes, 6 hours 10 ng/ml TNFα. As to the method:
as §1

A short description of experiment [4]: Guanine nucleotide binding: Cos-7 lysates on agarose coated with GTP, myc western blot. The note with it: myc-tagged protein expressed in Cos-7 cells; FIG. 49. As to the method:
(§2) Genes encoding different GBP family members were cloned into the vector pcDNA3.1mychis (Invitrogen) for expression in mammalian cells. Cos-7 cells were transfected with 5 μg of DNA per group using lipofectamine 2000 (Invitrogen) according to manufacturer's instructions. Approximately 18 hours after transfection, the cells were harvested using trypsin and lysed in RIPA buffer (10 mM sodium phosphate pH 7.2, 0.25 M sodium chloride, 0.1% SDS, 1% NP40, 1% sodium deoxycholate, 2 mM EDTA, protease inhibitor cocktail). An aliquot of the lysate was reserved for the whole cell lysate sample. The remainder was divided in thirds, and incubated for three hours at 4° C. with agarose coated with either GTP, GDP, or GMP (Sigma Chemical Company). The beads were pelleted, washed with buffer (0.1% NP40, 150 mM NaCl, 50 mM Tris pH7.5), and resuspended in SDS sample buffer. Samples were electrophoresed through 4–20% tris-glycine gels, transferred to nitrocellulose, blocked overnight with 5% non-fat dry milk and 0.3% BSA in Tris-buffered saline, and probed with a mouse monoclonal antibody specific for the myc epitope tag (Invitrogen).

A short description of experiment [5]: Guanine nucleotide binding: Cos-7 lysates on agarose coated with GDP, myc western blot. To be noted: myc-tagged protein expressed in Cos-7 cells; FIG. 49. As to the method:
as §2

Experiment [6] is described as follows: Guanine nucleotide binding: Cos-7 lysates on agarose coated with GMP, myc western blot. To be noted: myc-tagged protein expressed in Cos-7 cells; FIG. 49. As to the method: as §2

With “GCUCGAGAAACUACAAGAUTT, (SEQ ID NO:79) [1–3]”, the “knockdown of GBP-1 protein expression” value in experiment [1] is listed as “specific knockdown”. In experiment [2], the “inhibition of TNFα-induced MCP-1 expression” value is recorded as 70%. Moreover, the “inhibition of IL-8 secretion” value in experiment [3] is recorded as “failed to inhibit”.

B1: FLJ10961: human guanylate binding protein HGBPBMY4, AA SEQ ID NO:9 (protein, listed as Homo sapiens)
chain: MAPEIHMTGPMCLIENTNGELVANPEALKILSAITQPVVVVAIVGLYRTGKSYLMNKLAGKNKGFSLGSTVKSHTKGIWMWCVPHPKKPEHTLVLLDTEGLGDVKKGDNQNDSWIFTLAVLLSSTLVYNSMGTINQQAMDQLYYVTELTHRIRSKSSPDENENEDSADFVSFFPDFVWTLRDFSLDLEADGQPLTPDEYLEYSLKLTQGNRKLAQLEKLQDEELDPEFVQQVADFCSYIFSNSKTKTLSGGIKVNGPCLESLVLTYINAISRGDLPCMENAVLALAQIENSAAVQKAIAHYDQQMGQKVQLPAETLQELLDLHRVSEREATEVYMKNSFKDVDHLFQKKLAAQLDKKRDDFCKQNQEASSDRCSALLQVIFSPLEEEVKAGIYSKPGGYCLFIQKLQDLEKKYYEEPRKGIQAEEILQTYLKSKESVTDAILQTDQILTEKEKEIEVECVKAESAQASAKMVEEMQIKYQQMMEEKEKSYQEHVKQLTEKMERERAQLLEEQEKTLTSKLQEQARVLKERCQGESTQLQNEIQKLQKTLKKKTKRYMSHKLKI
Consider B1, for which, in experiment [4], the “binding to GTP agarose beads” value is given as “weakly”. In experiment [5], the “binding to GDP agarose beads” value was “bound well”. The “binding to GMP agarose beads” value in experiment [6] is given as “bound well”.

B2: AK096141: human guanylate binding protein HGBPBMY1, AA SEQ ID NO:3 (protein, listed as Homo sapiens)
chain: MASEIHMPGPVCLIENTKGHLVVNSEALEILSAITQPVVVVAIVGLYRTGKSYLMNKLAGKNKGFPLGCTVKSETKGIWMWCVPHPSKPNHTLILLDTEGLGDMEKSDPKSDSWIFALAVLLSSSFVYNSMGTINHQALEQLHYVTELTELIRAKSCPRPDEVEDSSEFVSFFPDFIWTVRDFTLELKLDGHPITEDEYLENALKLISGKNPQIQNSNKPREWIRHFFPKQKCFVFDRPINDKKLLLHVEEVREDQLDSNFQMQSENFCSYIFTHAKTKTLREGILVTGNRLGMLVETYLDAINSGATPCLENAMAVLAQCENSAAVQRAANHYSQQMAQQVRFPTDTLQELLDVHAVCEREAIAVFMEYSFKDKSQEFQKKLVDTMEKKKEDFVLQNEEASAKYCQAELKRLSELLTESISRGTFFVPGGHNIYLEAKKKIEQDYTLVPRKGVKADEVLQSFLQSQVVIEESILQSDKALTAGEKAIAAKQAKKEAAEKEQELLRQKQKEQQQMMEAQERSFQENIAQLKKKMERERENYMRELRKMLSHKMKVLEELLTEGFKEIFESLNEEINRLKEQIEAAENEEPSVFSQILDVAGSIFIAALPGAAKLVDLGMKILSSLCNRLRNPGKKIIS
As for B2, in experiment [4], the “binding to GTP agarose beads” value was “not at all”. Also, the “binding to GDP agarose beads” value in experiment [5] was “bound weakly”. Moreover, the “binding to GMP agarose beads” value in experiment [6] was “bound weakly”.

B3: GBP-5: known guanylate binding protein family member, myc-tagged, expressed in Cos-7 cells (protein, UniProt Q96PP8 1-583, looked up)
Guanylate-binding protein 5: MALEIHMSDPMCLIENFNEQLKVNQEALEILSAITQPVVVVAIVGLYRTGKSYLMNKLAGKNKGFSVASTVQSHTKGIWIWCVPHPNWPNHTLVLLDTEGLGDVEKADNKNDIQIFALALLLSSTFVYNTVNKIDQGAIDLLHNVTELTDLLKARNSPDLDRVEDPADSASFFPDLVWTLRDFCLGLEIDGQLVTPDEYLENSLRPKQGSDQRVQNFNLPRLCIQKFFPKKKCFIFDLPAHQKKLAQLETLPDDELEPEFVQQVTEFCSYIFSHSMTKTLPGGIMVNGSRLKNLVLTYVNAISSGDLPCIENAVLALAQRENSAAVQKAIAHYDQQMGQKVQLPMETLQELLDLHRTSEREAIEVFMKNSFKDVDQSFQKELETLLDAKQNDICKRNLEASSDYCSALLKDIFGPLEEAVKQGIYSKPGGHNLFIQKTEELKAKYYREPRKGIQAEEVLQKYLKSKESVSHAILQTDQALTETEKKKKEAQVKAEAEKAEAQRLAAIQRQNEQMMQERERLHQEQVRQMEIAKQNWLAEQQKMQEQQMQEQAAQLSTTFQAQNRSLLSELQHAQRTVNNDDPC
modifications: myc tag
As for B3, the “binding to GTP agarose beads” value in experiment [4] was “weakly”. The “binding to GDP agarose beads” value in experiment [5] was “bound well”. Also, in experiment [6], the “binding to GMP agarose beads” value is “bound well”.

B4: GBP-1: known guanylate binding protein family member, myc-tagged, expressed in Cos-7 cells (protein, UniProt P32455 1-589, looked up)
Guanylate-binding protein 1: MASEIHMTGPMCLIENTNGRLMANPEALKILSAITQPMVVVAIVGLYRTGKSYLMNKLAGKKKGFSLGSTVQSHTKGIWMWCVPHPKKPGHILVLLDTEGLGDVEKGDNQNDSWIFALAVLLSSTFVYNSIGTINQQAMDQLYYVTELTHRIRSKSSPDENENEVEDSADFVSFFPDFVWTLRDFSLDLEADGQPLTPDEYLTYSLKLKKGTSQKDETFNLPRLCIRKFFPKKKCFVFDRPVHRRKLAQLEKLQDEELDPEFVQQVADFCSYIFSNSKTKTLSGGIQVNGPRLESLVLTYVNAISSGDLPCMENAVLALAQIENSAAVQKAIAHYEQQMGQKVQLPTETLQELLDLHRDSEREAIEVFIRSSFKDVDHLFQKELAAQLEKKRDDFCKQNQEASSDRCSALLQVIFSPLEEEVKAGIYSKPGGYRLFVQKLQDLKKKYYEEPRKGIQAEEILQTYLKSKESMTDAILQTDQTLTEKEKEIEVERVKAESAQASAKMLQEMQRKNEQMMEQKERSYQEHLKQLTEKMENDRVQLLKEQERTLALKLQEQEQLLKEGFQKESRIMKNEIQDLQTKMRRRKAC
modifications: myc tag
Take B4: the “binding to GTP agarose beads” value in experiment [4] is “bound well”. In experiment [5], the “binding to GDP agarose beads” value is listed as “bound well”. In experiment [6], the “binding to GMP agarose beads” value was “bound well”.

B5: 4843—1: human guanylate binding protein HGBPBMY2, AA SEQ ID NO:5 (protein, listed as Homo sapiens)
chain: MESGPKMLAPVCLVENNNEQLLVNQQAIQILEKISQPVVVAIVGLYRTGKSYLMNHLAGQNHGFPLGSTVQSETKGIWMWCVPHPSKPNHTLVLLDTEGLGDVEKGDPKNDSWIFALAVLLCSTFVYNSMSTINHQALEQLHYVTELTELIKAKSSPRPDGVEDSTEFVSFFPDFLWTVRDFTLELKLNGHPITEDEYLENALKLIQGNNPRVQTSNFPRECIRRFLPKRKCFVFDRPTNDKDLLANIEKVSEKQLDPKFQEQTNIFCSYIFTHARTKTLREGITVTGNRLGTLAVTYVEAINSGAVPCLENAVITLAQRENSAAVQRASDYYSQQMAQRVKFPTDTLQELLDVHAACEREAIAIFMEHSFKDENQEFQKKFMETTMNKKGDFLLQNEESSVQYCQAKLNELSKGLMESISAGSFSVPGGHKLYMETKERIEQDYWQVPRKGVKAKEVFQRFLESQMVIEESILQSDKALTDREKAVAVDRAKKEAAEKEQELLKQKLQEQQQQMEAQVKSRKENIAQLKEKLQMEREHLLREQIMMLEHTQKVQNDWLHEGFKKKYEEMNAEISQFKRMIDTTKNDDTPWIARTLDNLADELTAILSAPAKLIGHGVKGVSSLFKKHKLPFKGGRADPAFLYKVVDLEGPRFEQKLISEEDLNMHTGHHHHHH
Regarding B5, the “binding to GTP agarose beads” value in experiment [4] was “did not bind”. Also, in experiment [5], the “binding to GDP agarose beads” value is on record as “did not bind”. In addition, the “binding to GMP agarose beads” value in experiment [6] is recorded as “did not bind”.

B6: GBP-2: known guanylate binding protein family member, myc-tagged, expressed in Cos-7 cells (protein, UniProt P32456 1-588, looked up)
Guanylate-binding protein 2: MAPEINLPGPMSLIDNTKGQLVVNPEALKILSAITQPVVVVAIVGLYRTGKSYLMNKLAGKKNGFSLGSTVKSHTKGIWMWCVPHPKKPEHTLVLLDTEGLGDIEKGDNENDSWIFALAILLSSTFVYNSMGTINQQAMDQLHYVTELTDRIKANSSPGNNSVDDSADFVSFFPAFVWTLRDFTLELEVDGEPITADDYLELSLKLRKGTDKKSKSFNDPRLCIRKFFPKRKCFVFDWPAPKKYLAHLEQLKEEELNPDFIEQVAEFCSYILSHSNVKTLSGGIPVNGPRLESLVLTYVNAISSGDLPCMENAVLALAQIENSAAVEKAIAHYEQQMGQKVQLPTETLQELLDLHRDSEREAIEVFMKNSFKDVDQMFQRKLGAQLEARRDDFCKQNSKASSDCCMALLQDIFGPLEEDVKQGTFSKPGGYRLFTQKLQELKNKYYQVPRKGIQAKEVLKKYLESKEDVADALLQTDQSLSEKEKAIEVERIKAESAEAAKKMLEEIQKKNEEMMEQKEKSYQEHVKQLTEKMERDRAQLMAEQEKTLALKLQEQERLLKEGFENESKRLQKDIWDIQMRSKSLEPIC
modifications: myc tag
Regarding B6, in experiment [4], the “binding to GTP agarose beads” value is recorded as “bound well”. Besides, the “binding to GDP agarose beads” value in experiment [5] is “bound well”. In experiment [6], the “binding to GMP agarose beads” value is “bound well”.
